Kd data for four molecules are collected here from patent US20250270332A1 (ANTLERA THERAPEUTICS, published 2025).

The test deals with T1, FZD4 recombinant extracellular domain, Fc fusion (FZD-Fc) (UniProt Q9ULV1 37-180).
T1 construct: extracellular domain; also called FZD4 ECD; not shown: Fc part of the FZD-Fc protein
T1 sequence (looked up): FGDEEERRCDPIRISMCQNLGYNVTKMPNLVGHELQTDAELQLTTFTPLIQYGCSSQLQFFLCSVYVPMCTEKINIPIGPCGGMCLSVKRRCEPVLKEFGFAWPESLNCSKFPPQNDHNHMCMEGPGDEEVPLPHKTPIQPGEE
As to the kind of experiment: BLI (Octet), FZD-Fc captured on AHQ sensors, agonist in solution; apparent affinity. On the technique in general: In BLI a coated tip is dipped into the sample, and binding shifts an interference pattern.

B1: FZD4 Agonist ANT16 (bispecific antibody, human IgG1, kappa, N297G)
heavy 1: EVQLVESGGGLVQPGGSLRLSCAASGFDFTAYAMHWVRQAPGKGLEWVASIYPSGGYTAYADSVKGRFTISADTSKNTAYLQMNSLRAEDTAVYYCARRSYYFALDYWGQGTLVTVSSGGGGSDIQMTQSPSSLSASVGDRVTITCRASQSVSSAVAWYQQKPGKAPKLLIYSASSLYSGVPSRFSGSRSGTDFTLTISSLQPEDFATYYCQQYWAYYSPITFGQGTKVEIKGGGGSGGGGSEPKTSDKTHTCPPCPAPELLGGPSVFLFPPKPKDTLMISRTPEVTCVVVAVSHEDPEVKFNWYVDGVEVHNAKTKPREEQYGSTYRVVSVLTVLHQDWLNGKEYKCKVSNKALPAPIEKTISKAKGQPREPMVFDLPPSREEMTKNQVSLWCMVKGFYPSDIAVEWESNGQPENNYKTTPPVLDSDGSFFLYSKLTVDKSRWQQGNVFSCSVMHEALHNHYTQKSLSLSPGKGGGSGGGSGGGSGGGSGSTGEVQLVESGGGLVQPGGSLRLSCAASGFTLSSYSMHWVRQAPGKGLEWVAYISSYYGYTYYADSVKGRFTISADTSKNTAYLQMNSLRAEDTAVYYCARPAPGHWGFDYWGQGTLVTVSSASTKGPSVFPLAPSSKSTSGGTAALGCLVKDYFPEPVTVSWNSGALTSGVHTFPAVLQSSGLYSLSSVVTVPSSSLGTQTYICNVNHKPSNTKVDKKVEPKSCDKTHT
heavy 2: EVQLVESGGGLVQPGGSLRLSCAASGFDFSSSSIHWVRQAPGKGLEWVASISSSYGYTYYADSVKGRFTISADTSKNTAYLQMNSLRAEDTAVYYCARSWAMDYWGQGTLVTVSSGGGGSDIQMTQSPSSLSASVGDRVTITCRASQSVSSAVAWYQQKPGKAPKLLIYSASDLYSGVPSRFSGSRSGTDFTLTISSLQPEDFATYYCQQYAGAGLITFGQGTKVEIKGGGGSGGGGSEPKSSDKTHTCPPCPAPELLGGPSVFLFPPKPKDTLMISRTPEVTCVVVAVSHEDPEVKFNWYVDGVEVHNAKTKPREEQYGSTYRVVSVLTVLHQDWLNGKEYKCKVSNKALPAPIEKTISKAKGQPREPQVYTLPPIRELMTSNQVSLSCAVKGFYPSDIAVEWESNGQPENNYKTTPPVLDSDGSFFLVSKLTVDKSRWQQGNVFSCSVMHEALHNHYTQKSLSLSPGKGGGSGGGSGGGSGGGSGSTGEVQLVESGGGLVQPGGSLRLSCAASGFTLSSYSMHWVRQAPGKGLEWVAYISSYYGYTYYADSVKGRFTISADTSKNTAYLQMNSLRAEDTAVYYCARPAPGHWGFDYWGQGTLVTVSSASTKGPSVFPLAPSSKSTSGGTAALGCLVKDYFPEPVTVSWNSGALTSGVHTFPAVLQSSGLYSLSSVVTVPSSSLGTQTYICNVNHKPSNTKVDKKVEPKSCDKTHT
light: DIQMTQSPSSLSASVGDRVTITCRASQSVSSAVAWYQQKPGKAPKLLIYSASSLYSGVPSRFSGSRSGTDFTLTISSLQPEDFATYYCQQWYYAPITFGQGTKVEIKRTVAAPSVFIFPPSDEQLKSGTASVVCLLNNFYPREAKVQWKVDNALQSGNSQESVTEQDSKDSTYSLSSTLTLSKADYEKHKVYACEVTHQGLSSPVTKSFNRGEC
notes: Diabody-Fc-Fab format: bispecific LRP5 diabody at the N-terminus, two FZD4 Fabs at the C-terminus
As for B1, the Kd came out at 0.6 nM.

B2: FZD4 Agonist ANT18 (bispecific antibody)
heavy 1: EVQLVESGGGMVQPGGSLRLSCAASGFNFSSSSIHWVRQAPGKGLEWVASISSSYGYTYYADSVKGRFTISADTSKNTAYLQMNSLRAEDTAVYYCARGGSGVSHYGSVYYSWWALDYWGQGTLVTVSSGGGGSDIQMTQSPSSLSASVGDRVTITCRASQSVSSAVAWYQQKPGKAPKLLIYSASSLYSGVPSRFSGSRSGTDFTLTISSLQPEDFATYYCQQASYAPITFGQGTKVEIKGGGGSGGGGSEPKTSDKTHTCPPCPAPELLGGPSVFLFPPKPKDTLMISRTPEVTCVVVAVSHEDPEVKFNWYVDGVEVHNAKTKPREEQYGSTYRVVSVLTVLHQDWLNGKEYKCKVSNKALPAPIEKTISKAKGQPREPMVFDLPPSREEMTKNQVSLWCMVKGFYPSDIAVEWESNGQPENNYKTTPPVLDSDGSFFLYSKLTVDKSRWQQGNVFSCSVMHEALHNHYTQKSLSLSPGKGGGSGGGSGGGSGGGSGSTGEVQLVESGGGLVQPGGSLRLSCAASGFTLSSYSMHWVRQAPGKGLEWVAYISSYYGYTYYADSVKGRFTISADTSKNTAYLQMNSLRAEDTAVYYCARPAPGHWGFDYWGQGTLVTVSSASTKGPSVFPLAPSSKSTSGGTAALGCLVKDYFPEPVTVSWNSGALTSGVHTFPAVLQSSGLYSLSSVVTVPSSSLGTQTYICNVNHKPSNTKVDKKVEPKSCDKTHT
heavy 2: EVQLVESGGGLVQPGGSLRLSCAASGFNLSYYYMHWVRQAPGKGLEWVASIYSSYGYTYYADSVKGRFTISADTSKNTAYLQMNSLRAEDTAVYYCARWSHVSGHYSGMDYWGQGTLVTVSSGGGGSDIQMTQSPSSLSASVGDRVTITCRASQSVSSAVAWYQQKPGKAPKLLIYSASSLYSGVPSRFSGSRSGTDFTLTISSLQPEDFATYYCQQSSYSLITFGQGTKVEIKGGGGSGGGGSEPKSSDKTHTCPPCPAPELLGGPSVFLFPPKPKDTLMISRTPEVTCVVVAVSHEDPEVKFNWYVDGVEVHNAKTKPREEQYGSTYRVVSVLTVLHQDWLNGKEYKCKVSNKALPAPIEKTISKAKGQPREPQVYTLPPIRELMTSNQVSLSCAVKGFYPSDIAVEWESNGQPENNYKTTPPVLDSDGSFFLVSKLTVDKSRWQQGNVFSCSVMHEALHNHYTQKSLSLSPGKGGGSGGGSGGGSGGGSGSTGEVQLVESGGGLVQPGGSLRLSCAASGFTLSSYSMHWVRQAPGKGLEWVAYISSYYGYTYYADSVKGRFTISADTSKNTAYLQMNSLRAEDTAVYYCARPAPGHWGFDYWGQGTLVTVSSASTKGPSVFPLAPSSKSTSGGTAALGCLVKDYFPEPVTVSWNSGALTSGVHTFPAVLQSSGLYSLSSVVTVPSSSLGTQTYICNVNHKPSNTKVDKKVEPKSCDKTHT
light: B1 light
notes: Diabody-Fc-Fab format
As for B2, the Kd worked out at 2.6 nM.

B3: FZD4 Agonist ANT20 (bispecific antibody)
heavy 1: EVQLVESGGGLVQPGGSLRLSCAASGFDFTAYAMHWVRQAPGKGLEWVASIYPSGGYTAYADSVKGRFTISADTSKNTAYLQMNSLRAEDTAVYYCARRSYYFALDYWGQGTLVTVSSGGGGSDIQMTQSPSSLSASVGDRVTITCRASQSVSSAVAWYQQKPGKAPKLLIYSASSLYSGVPSRFSGSRSGTDFTLTISSLQPEDFATYYCQQASYAPITFGQGTKVEIKGGGGSGGGGSEPKTSDKTHTCPPCPAPELLGGPSVFLFPPKPKDTLMISRTPEVTCVVVAVSHEDPEVKFNWYVDGVEVHNAKTKPREEQYGSTYRVVSVLTVLHQDWLNGKEYKCKVSNKALPAPIEKTISKAKGQPREPMVFDLPPSREEMTKNQVSLWCMVKGFYPSDIAVEWESNGQPENNYKTTPPVLDSDGSFFLYSKLTVDKSRWQQGNVFSCSVMHEALHNHYTQKSLSLSPGKGGGSGGGSGGGSGGGSGSTGEVQLVESGGGLVQPGGSLRLSCAASGFTLSSYSMHWVRQAPGKGLEWVAYISSYYGYTYYADSVKGRFTISADTSKNTAYLQMNSLRAEDTAVYYCARPAPGHWGFDYWGQGTLVTVSSASTKGPSVFPLAPSSKSTSGGTAALGCLVKDYFPEPVTVSWNSGALTSGVHTFPAVLQSSGLYSLSSVVTVPSSSLGTQTYICNVNHKPSNTKVDKKVEPKSCDKTHT
heavy 2: EVQLVESGGGLVQPGGSLRLSCAASGFNLSYYYMHWVRQAPGKGLEWVASIYSSYGYTYYADSVKGRFTISADTSKNTAYLQMNSLRAEDTAVYYCARWSHVSGHYSGMDYWGQGTLVTVSSGGGGSDIQMTQSPSSLSASVGDRVTITCRASQSVSSAVAWYQQKPGKAPKLLIYSASDLYSGVPSRFSGSRSGTDFTLTISSLQPEDFATYYCQQYAGAGLITFGQGTKVEIKGGGGSGGGGSEPKSSDKTHTCPPCPAPELLGGPSVFLFPPKPKDTLMISRTPEVTCVVVAVSHEDPEVKFNWYVDGVEVHNAKTKPREEQYGSTYRVVSVLTVLHQDWLNGKEYKCKVSNKALPAPIEKTISKAKGQPREPQVYTLPPIRELMTSNQVSLSCAVKGFYPSDIAVEWESNGQPENNYKTTPPVLDSDGSFFLVSKLTVDKSRWQQGNVFSCSVMHEALHNHYTQKSLSLSPGKGGGSGGGSGGGSGGGSGSTGEVQLVESGGGLVQPGGSLRLSCAASGFTLSSYSMHWVRQAPGKGLEWVAYISSYYGYTYYADSVKGRFTISADTSKNTAYLQMNSLRAEDTAVYYCARPAPGHWGFDYWGQGTLVTVSSASTKGPSVFPLAPSSKSTSGGTAALGCLVKDYFPEPVTVSWNSGALTSGVHTFPAVLQSSGLYSLSSVVTVPSSSLGTQTYICNVNHKPSNTKVDKKVEPKSCDKTHT
light: B1 light
notes: Diabody-Fc-Fab format
As for B3, the Kd amounted to 0.7 nM.

B4: diabody-Fc-diabody FZD4 CM0199 (bispecific antibody)
chain 1: EFEVQLVESGGGLVQPGGSLRLSCAASGFNSSFYFMHWVRQAPGKGLEWVATVYPYLDYTYYADSVKGRFTISADTSKNTAYLQMNSLRAEDTAVYYCARAFPGSYHPMDYWGQGTLVTVSSGGGGSDIQMTQSPSSLSASVGDRVTITCRASQSVSSAVAWYQQKPGKAPKLLIYSASSLYSGVPSRFSGSRSGTDFTLTISSLQPEDFATYYCQQSSYSLITFGQGTKVEIKLEDKTHTKVEPKTSDKTHTCPPCPAPELLGGPSVFLFPPKPKDTLMISRTPEVTCVVVDVSHEDPEVKFNWYVDGVEVHNAKTKPREEQYNSTYRVVSVLTVLHQDWLNGKEYKCKVSNKALPAPIEKTISKAKGQPREPMVFDLPPSREEMTKNQVSLWCMVKGFYPSDIAVEWESNGQPENNYKTTPPVLDSDGSFFLYSKLTVDKSRWQQGNVFSCSVMHEALHNHYTQKSLSLSPGKSGSETPGTSESATPESGGGEVQLVESGGGLVQPGGSLRLSCAASGFNFSSSSIHWVRQAPGKGLEWVASISSSYGYTYYADSVKGRFTISADTSKNTAYLQMNSLRAEDTAVYYCARGGSGVSHYGSVYYSWWALDYWGQGTLVTVSSGGGGSDIQMTQSPSSLSASVGDRVTITCRASQSVSSAVAWYQQKPGKAPKLLIYSASSLYSGVPSRFSGSRSGTDFTLTISSLQPEDFATYYCQQASYAPITFGQGTKVEIK
chain 2: EFEVQLVESGGGLVQPGGSLRLSCAASGFNSSFYFMHWVRQAPGKGLEWVATVYPYLDYTYYADSVKGRFTISADTSKNTAYLQMNSLRAEDTAVYYCARAFPGSYHPMDYWGQGTLVTVSSGGGGSDIQMTQSPSSLSASVGDRVTITCRASQSVSSAVAWYQQKPGKAPKLLIYSASSLYSGVPSRFSGSRSGTDFTLTISSLQPEDFATYYCQQSSYSLITFGQGTKVEIKLEDKTHTKVEPKSSDKTHNCPPCPAPELLGGPSVFLFPPKPKDTLMISRTPEVTCVVVDVSHEDPEVKFNWYVDGVEVHNAKTKPREEQYNSTYRVVSVLTVLHQDWLNGKEYKCKVSNKALPAPIEKTISKAKGQPREPQVYTLPPIRELMTSNQVSLSCAVKGFYPSDIAVEWESNGQPENNYKTTPPVLDSDGSFFLVSKLTVDKSRWQQGNVFSCSVMHEALHNHYTQKSLSLSPGKSGSETPGTSESATPESGGGEVQLVESGGGLVQPGGSLRLSCAASGFNLSYYYMHWVRQAPGKGLEWVASIYSSYGYTYYADSVKGRFTISADTSKNTAYLQMNSLRAEDTAVYYCARWSHVSGHYSGMDYWGQGTLVTVSSGGGGSDIQMTQSPSSLSASVGDRVTITCRASQSVSSAVAWYQQKPGKAPKLLIYSASSLYSGVPSRFSGSRSGTDFTLTISSLQPEDFATYYCQQSSYSLITFGQGTKVEIK
notes: Diabody-Fc-diabody format FZD agonist that recognizes FZD4 and LRP5; also called F4L5.13
For the molecule B4, the Kd came out at 0.7 nM.
